Test results as given in patent US20080058263A1 (published 2008).

T1: VEGFR-3-Fc (UniProt P35916 25-328)
T1 construct: domain: first three Ig domains; conditioned supernatant of 293T cells; also called VEGFR-3-Fc fusion protein; not shown: Fc fragment of the pIg vector
T1 sequence (looked up): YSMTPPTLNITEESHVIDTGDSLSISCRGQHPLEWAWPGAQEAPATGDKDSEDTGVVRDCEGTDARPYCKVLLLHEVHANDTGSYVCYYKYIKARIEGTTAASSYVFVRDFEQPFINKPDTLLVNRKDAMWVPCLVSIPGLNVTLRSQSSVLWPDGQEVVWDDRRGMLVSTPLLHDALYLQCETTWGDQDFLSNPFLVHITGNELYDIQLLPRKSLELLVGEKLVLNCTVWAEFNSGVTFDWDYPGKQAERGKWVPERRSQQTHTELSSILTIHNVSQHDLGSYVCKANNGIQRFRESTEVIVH


Columns and labels:
Experiment in all cases: receptor-Fc IP
VEGFR-1-Fc = molecular target: T2, VEGFR-1-Fc (UniProt P17948 27-338)
T2 construct: domain: first three Ig domains; expressed in Drosophila S2 cells, purified on Protein A sepharose; also called VEGFR-1-Fc fusion protein; not shown: Fc fragment from the Signal-pIgPlus vector
Description: (§1) The binding assay procedure was identical to the immunoprecipitation using pentahistidine antibody described in Example 2, apart from the composition of the immunoprecipitation (IP) mixes. The IP mixes used for the receptor binding analysis were as follows: For VEGFR-1 binding assays, the IP mix was phosphate buffered saline (PBS) containing 1.5% BSA, 0.06% Tween 20, 3 μg/ml heparin and 400 ng/ml VEGFR-1-Fc fusion protein (100 μl of this IP mix was added to 200 μl of sample supernatant); for VEGFR-2 binding assays, the IP mix was 82% conditioned cell supernatant from 293T cells transiently expressing VEGFR-2-Fc fusion protein in mixture with 18% of a PBS solution that contained 5% BSA, 0.2% Tween 20, and 10 μg/ml heparin (250 μl of IP mix was added to 200 μl of sample supernatant); and for VEGFR-3 binding assays, the IP mix was 82% conditioned cell supernatant from 293T cells transiently expressing VEGFR-3-Fc fusion protein, 18% of PBS containing 5% BSA, 0.2% Tween 20, and 10 μg/ml heparin (250 μl of IP mix was added to 200 μl of sample supernatant).

VEGFR-2-Fc = molecular target: T3, VEGFR-2-Fc (UniProt P35968 20-322)
T3 construct: domain: first 3 Ig domains; conditioned supernatant of 293T cells; also called VEGFR-2-Fc fusion protein; not shown: Fc fragment of the pIg vector
Description: as §1

VEGFR-3-Fc = molecular target: T1, VEGFR-3-Fc
Description: as §1

T3 sequence (P35968 20-322): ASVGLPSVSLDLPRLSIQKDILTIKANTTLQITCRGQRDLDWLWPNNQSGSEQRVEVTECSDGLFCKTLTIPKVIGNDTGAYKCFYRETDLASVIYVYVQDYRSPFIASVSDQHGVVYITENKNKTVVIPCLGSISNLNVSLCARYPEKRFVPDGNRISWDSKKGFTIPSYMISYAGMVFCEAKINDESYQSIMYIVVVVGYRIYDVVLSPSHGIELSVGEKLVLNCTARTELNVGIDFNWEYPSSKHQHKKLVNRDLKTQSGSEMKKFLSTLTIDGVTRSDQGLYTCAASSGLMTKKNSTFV
T2 sequence (P17948 27-338): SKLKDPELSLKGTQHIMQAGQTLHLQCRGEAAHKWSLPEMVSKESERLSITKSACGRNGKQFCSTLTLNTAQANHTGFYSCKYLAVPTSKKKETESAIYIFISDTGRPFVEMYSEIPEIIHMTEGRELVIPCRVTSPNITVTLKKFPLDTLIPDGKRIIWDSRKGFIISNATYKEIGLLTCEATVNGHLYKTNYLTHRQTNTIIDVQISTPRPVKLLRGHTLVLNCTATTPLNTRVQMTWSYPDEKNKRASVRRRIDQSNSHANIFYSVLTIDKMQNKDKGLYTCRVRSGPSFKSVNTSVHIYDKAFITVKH

Row | Binder | binding result (VEGFR-1-Fc) | binding result (VEGFR-2-Fc) | binding result (VEGFR-3-Fc)
1 | 83-9 (ligand) AHYNTEILKFMDVYQRSYCHPIETLVDIFQEYPDEIEYIFKPPCVSVYRCGGCCNDEGLECVPTEESNITMQIMRITVPLSQGPKPVTISFLQHNKCECRPKKD | binds | no binding | no binding
2 | 83-11 (ligand) AHYNTEILKFMDVYQRSYCHPIETLVDIFQEYPDEIEYIFKPPCVSVYRCGGCCNSEGLQCVPTEESNITMQIMRITVPLSQGPKPVTISFLQHNKCECRPKKD | binds | binds | no binding
3 | 43-7 (ligand) AHYNTEILKFMDVYQRSYCHPREVCIDVGKEYPDEIEYIFKPPCVSVYRCGGCCNSEGLQCVPTEESNITMQIMRIKPHQGQHIGEMSFANHTSCRCMSKLD | no binding | no binding | no binding
4 | 83-5 (ligand) AHYNTEILKFMDVYQRSYCHPIETLVDIFQEYPDEIEYIFKPPCVSVYRCGGCCNDEGLECVPTEESNITMQIMRIKPHQGQHIGEMSFANHTSCRCMSKLD | binds | binds | no binding
5 | 41-7 (ligand) AHYNTEILKFMDVYQRSYCHPREVCIDVGKEYPDEIEYIFKPSCVPLMRCGGCCNSEGLQCVPTEESNITMQIMRIKPHQGQHIGEMSFANHTSCRCMSKLD | no binding | no binding | no binding
6 | 44-5 (ligand) AHYNTEILKFMDVYQRSYCHPREVCIDVGKEFGVATNTFFKPSCVPLMRCGGCCNDEGLECVPTEESNITMQIMRIKPHQGQHIGEMSFANHTSCRCMSKLD | no binding | no binding | no binding
7 | 44-1 (ligand) AHYNTEILKFMDVYQRSYCHPREVCIDVGKEFGVATNTFFKPSCVPLMRCGGCCNDEGLECVPTEESNITMQIMRIKPHQGQHIGEMSFLQHNKCECRPKKD | no binding | no binding | no binding
8 | 81-7 (ligand) AHYNTEILKFMDVYQRSYCHPIETLVDIFQEYPDEIEYIFKPSCVPLMRCGGCCNSEGLQCVPTEESNITMQIMRIKPHQGQHIGEMSFANHTSCRCMSKLD | binds | binds | no binding
9 | 61-7 (ligand) GQNHHEVVKFMDVYQRSYCHPREVCIDVGKEYPDEIEYIFKPSCVPLMRCGGCCNSEGLQCVPTEESNITMQIMRIKPHQGQHIGEMSFANHTSCRCMSKLD | no binding | no binding | no binding
10 | 63-3 (ligand) GQNHHEVVKFMDVYQRSYCHPREVCIDVGKEYPDEIEYIFKPPCVSVYRCGGCCNSEGLQCVPTEESNITMQIMRIKPHQGQHIGEMSFLQHNKCECRPKKD | no binding | binds | no binding
11 | 81-1 (ligand) AHYNTEILKFMDVYQRSYCHPIETLVDIFQEYPDEIEYIFKPSCVPLMRCGGCCNDEGLECVPTEESNITMQIMRIKPHQGQHIGEMSFLQHNKCECRPKKD | binds | binds | no binding
12 | 83-7 (ligand) AHYNTEILKFMDVYQRSYCHPIETLVDIFQEYPDEIEYIFKPPCVSVYRCGGCCNSEGLQCVPTEESNITMQIMRIKPHQGQHIGEMSFANHTSCRCMSKLD | binds | binds | no binding
13 | 83-3 (ligand) AHYNTEILKFMDVYQRSYCHPIETLVDIFQEYPDEIEYIFKPPCVSVYRCGGCCNSEGLQCVPTEESNITMQIMRIKPHQGQHIGEMSFLQHNKCECRPKKD | binds | binds | no binding
14 | 81-5 (ligand) AHYNTEILKFMDVYQRSYCHPIETLVDIFQEYPDEIEYIFKPSCVPLMRCGGCCNDEGLECVPTEESNITMQIMRIKPHQGQHIGEMSFANHTSCRCMSKLD | binds | binds | no binding
15 | 61-3 (ligand) GQNHHEVVKFMDVYQRSYCHPREVCIDVGKEYPDEIEYIFKPSCVPLMRCGGCCNSEGLQCVPTEESNITMQIMRIKPHQGQHIGEMSFLQHNKCECRPKKD | binds | no binding | no binding
16 | 81-3 (ligand) AHYNTEILKFMDVYQRSYCHPIETLVDIFQEYPDEIEYIFKPSCVPLMRCGGCCNSEGLQCVPTEESNITMQIMRIKPHQGQHIGEMSFLQHNKCECRPKKD | binds | binds | no binding
17 | 44-7 (ligand) AHYNTEILKFMDVYQRSYCHPREVCIDVGKEFGVATNTFFKPSCVPLMRCGGCCNSEGLQCVPTEESNITMQIMRIKPHQGQHIGEMSFANHTSCRCMSKLD | no binding | no binding | no binding
18 | 61-5 (ligand) GQNHHEVVKFMDVYQRSYCHPREVCIDVGKEYPDEIEYIFKPSCVPLMRCGGCCNDEGLECVPTEESNITMQIMRIKPHQGQHIGEMSFANHTSCRCMSKLD | no binding | no binding | no binding
19 | 61-1 (ligand) GQNHHEVVKFMDVYQRSYCHPREVCIDVGKEYPDEIEYIFKPSCVPLMRCGGCCNDEGLECVPTEESNITMQIMRIKPHQGQHIGEMSFLQHNKCECRPKKD | binds | no binding | no binding
20 | 43-5 (ligand) AHYNTEILKFMDVYQRSYCHPREVCIDVGKEYPDEIEYIFKPPCVSVYRCGGCCNDEGLECVPTEESNITMQIMRIKPHQGQHIGEMSFANHTSCRCMSKLD | no binding | no binding | no binding
21 | 42-7 (ligand) AHYNTEILKFMDVYQRSYCHPREVCIDVGKEFGVATNTFFKPPCVSVYRCGGCCNSEGLQCVPTEESNITMQIMRIKPHQGQHIGEMSFANHTSCRCMSKLD | no binding | no binding | no binding
22 | 44-3 (ligand) AHYNTEILKFMDVYQRSYCHPREVCIDVGKEFGVATNTFFKPSCVPLMRCGGCCNSEGLQCVPTEESNITMQIMRIKPHQGQHIGEMSFLQHNKCECRPKKD | no binding | no binding | no binding
23 | 63-7 (ligand) GQNHHEVVKFMDVYQRSYCHPREVCIDVGKEYPDEIEYIFKPPCVSVYRCGGCCNSEGLQCVPTEESNITMQIMRIKPHQGQHIGEMSFANHTSCRCMSKLD | no binding | binds | binds
24 | 83-1 (ligand) AHYNTEILKFMDVYQRSYCHPIETLVDIFQEYPDEIEYIFKPPCVSVYRCGGCCNDEGLECVPTEESNITMQIMRIKPHQGQHIGEMSFLQHNKCECRPKKD | binds | binds | no binding
